One block for each binder: values may come before it. No end group written: not given here.
T1: Apc2, cullin subunit in the S. cerevisiae APC/C (S. cerevisiae, UniProt Q12440 1-853)
T1 sequence: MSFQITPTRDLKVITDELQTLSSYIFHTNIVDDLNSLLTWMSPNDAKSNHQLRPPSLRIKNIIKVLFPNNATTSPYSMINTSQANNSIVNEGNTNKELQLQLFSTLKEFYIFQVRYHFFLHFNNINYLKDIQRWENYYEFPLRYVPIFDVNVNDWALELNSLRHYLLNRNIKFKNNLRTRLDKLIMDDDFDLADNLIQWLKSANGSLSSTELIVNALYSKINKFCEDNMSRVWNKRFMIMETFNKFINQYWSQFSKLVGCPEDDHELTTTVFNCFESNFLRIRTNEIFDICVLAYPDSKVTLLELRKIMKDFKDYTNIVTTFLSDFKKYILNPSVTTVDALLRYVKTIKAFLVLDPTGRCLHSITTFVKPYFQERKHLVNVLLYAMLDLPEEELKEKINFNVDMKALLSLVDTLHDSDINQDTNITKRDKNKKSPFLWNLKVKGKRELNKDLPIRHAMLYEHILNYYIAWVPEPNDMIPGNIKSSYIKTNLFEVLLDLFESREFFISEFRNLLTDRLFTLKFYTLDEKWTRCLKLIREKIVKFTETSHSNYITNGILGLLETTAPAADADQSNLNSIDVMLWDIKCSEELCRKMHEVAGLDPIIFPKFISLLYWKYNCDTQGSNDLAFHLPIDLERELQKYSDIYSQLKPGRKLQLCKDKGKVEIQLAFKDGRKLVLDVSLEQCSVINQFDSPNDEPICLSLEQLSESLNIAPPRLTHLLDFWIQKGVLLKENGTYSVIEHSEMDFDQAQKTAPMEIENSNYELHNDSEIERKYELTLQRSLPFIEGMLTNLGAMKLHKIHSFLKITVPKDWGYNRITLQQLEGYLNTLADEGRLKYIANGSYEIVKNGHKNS

B1: Apc3/Cdc27, TPR subunit in the S. cerevisiae APC/C (natural protein)
chain: MAVNPELAPFTLSRGIPSFDDQALSTIIQLQDCIQQAIQQLNYSTAEFLAELLYAECSILDKSSVYWSDAVYLYALSLFLNKSYHTAFQISKEFKEYHLGIAYIFGRCALQLSQGVNEAILTLLSIINVFSSNSSNTRINMVLNSNLVHIPDLATLNCLLGNLYMKLDHSKEGAFYHSEALAINPYLWESYEAICKMRATVDLKRVFFDIAGKKSNSHNNNAASSFPSTSLSHFEPRSQPSLYSKTNKNGNNNINNNVNTLFQSSNSPPSTSASSFSSIQHFSRSQQQQANTSIRTCQNKNTQTPKNPAINSKTSSALPNNISMNLVSPSSKQPTISSLAKVYNRNKLLTTPPSKLLNNDRNHQNNNNNNNNNNNNNNNNNNNNNNNNIINKTTFKTPRNLYSSTGRLTTSKKNPRSLIISNSILTSDYSITLPEIMYNFALILRSSSQYNSFKAIRLFESQIPSHIKDTMPWCLVQLGKLHFEIINYDMSLKYFNRLKDLQPARVKDMEIFSTLLWHLHDKVKSSNLANGLMDTMPNKPETWCCIGNLLSLQKDHDAAIKAFEKATQLDPNFAYAYTLQGHEHSSNDSSDSAKTCYRKALACDPQHYNAYYGLGTSAMKLGQYEEALLYFEKARSINPVNVVLICCCGGSLEKLGYKEKALQYYELACHLQPTSSLSKYKMGQLLYSMTRYNVALQTFEELVKLVPDDATAHYLLGQTYRIVGRKKDAIKELTVAMNLDPKGNQVIIDELQKCHMQE
B2: S. cerevisiae His6-Cdh1 (natural protein)
chain: MSTNLNPFMNNTPSSSPLKGSESKRVSKRPISSSSSASLLSSPSRRSRPSTVYGDRYIPSRTDIDFNSIVSISSMASVPALNPSSTEDQVEYQKERQAHETYNTLLKNELFGEMLSKDTVGSESSIDRIKNTRPSTRGNVHAENTTRHGYELERVSTPPPEAAGLEEFSPHSTPVTPRRLFTSQQDEITRPSSNSVRGASLLTYQQRKGRRLSAASLLQSQFFDSMSPVRPDSKQLLLSPGKQFRQIAKVPYRVLDAPSLADDFYYSLIDWSSTDVLAVALGKSIFLTDNNTGDVVHLCDTENEYTSLSWIGAGSHLAVGQANGLVEIYDVMKRKCIRTLSGHIDRVACLSWNNHVLTSGSRDHRILHRDVRMPDPFFETIESHTQEVCGLKWNVADNKLASGGNDNVVHVYEGTSKSPILTFDEHKAAVKAMAWSPHKRGVLATGGGTADRRLKIWNVNTSIKMSDIDSGSQICNMVWSKNTNELVTSHGYSKYNLTLWDCNSMDPIAILKGHSFRVLHLTLSNDGTTVVSGAGDETLRYWKLFDKPKAKVQPNSLIFDAFNQIR

How the values were obtained:
cryo-EM structure = molecular target: the molecule itself; test: cryo-EM structure
[1] = molecular target: B1; test: cryo-EM structure
[2] = molecular target: T1, Apc2, cullin subunit in the S. …; test: cryo-EM structure
S. cerevisiae His6-Cdh1 = molecular target: B2; test: cryo-EM structure
[3] = molecular target: APC/C in complex with Cdh1 (APC/C^Cdh1), budding yeast (S. cerevisiae) (UniProt P53886)

Binder: B1
- binding result (cryo-EM structure): binds

Binder: B2
- binding result [1]: binds
- binding result [2]: binds

- binding result (S. cerevisiae His6-Cdh1): binds
- inhibition of APC/C^Cdh1 ubiquitylation of Clb2 by the peptide [3]: 0.1 mM
Binder: NVPKKRHALDDVSNFHNK (not fully specified) [18-residue D-box peptide modelled on cyclin B (S. pombe Cdc13)]

— PMC3037847 (Nature, 2010)
